In assay [1] the target is truncated KDM2A construct (36–517) lacking the 1–35 and 365–449 peptide segments (UniProt Q9Y2K7).
For assay [2], the target named is T1, KDM2A K323A/F324A (UniProt Q9Y2K7 1-1162, K323A | F324A).
T1 sequence (looked up): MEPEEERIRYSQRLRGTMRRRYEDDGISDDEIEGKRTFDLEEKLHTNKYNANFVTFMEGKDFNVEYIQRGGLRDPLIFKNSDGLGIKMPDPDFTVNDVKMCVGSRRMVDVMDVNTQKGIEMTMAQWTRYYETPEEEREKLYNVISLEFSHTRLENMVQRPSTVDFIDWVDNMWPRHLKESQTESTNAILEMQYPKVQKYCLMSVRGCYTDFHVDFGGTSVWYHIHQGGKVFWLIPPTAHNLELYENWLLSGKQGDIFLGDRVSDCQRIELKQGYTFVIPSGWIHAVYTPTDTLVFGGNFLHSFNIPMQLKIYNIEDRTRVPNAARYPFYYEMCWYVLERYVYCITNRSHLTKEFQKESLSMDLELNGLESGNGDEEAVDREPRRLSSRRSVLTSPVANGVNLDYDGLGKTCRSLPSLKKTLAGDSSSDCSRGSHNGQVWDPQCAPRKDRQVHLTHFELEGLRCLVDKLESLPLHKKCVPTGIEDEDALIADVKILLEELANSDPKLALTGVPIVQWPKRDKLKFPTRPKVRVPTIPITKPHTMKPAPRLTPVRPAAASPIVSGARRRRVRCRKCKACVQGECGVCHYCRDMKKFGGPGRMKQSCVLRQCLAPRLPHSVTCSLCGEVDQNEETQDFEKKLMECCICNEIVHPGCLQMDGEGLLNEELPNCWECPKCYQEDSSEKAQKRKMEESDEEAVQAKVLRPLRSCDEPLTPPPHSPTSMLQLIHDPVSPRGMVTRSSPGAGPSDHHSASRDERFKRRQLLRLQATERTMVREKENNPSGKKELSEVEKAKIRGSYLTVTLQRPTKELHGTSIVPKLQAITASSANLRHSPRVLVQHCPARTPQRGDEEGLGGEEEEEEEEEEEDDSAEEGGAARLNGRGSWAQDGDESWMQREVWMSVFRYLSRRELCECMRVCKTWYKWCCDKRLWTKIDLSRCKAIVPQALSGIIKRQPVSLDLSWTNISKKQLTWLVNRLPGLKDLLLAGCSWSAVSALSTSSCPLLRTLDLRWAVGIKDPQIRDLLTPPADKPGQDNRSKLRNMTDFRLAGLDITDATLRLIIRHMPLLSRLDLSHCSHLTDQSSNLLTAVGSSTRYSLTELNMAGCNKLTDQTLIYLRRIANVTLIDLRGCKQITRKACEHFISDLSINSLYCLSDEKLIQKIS
Briefly: cell-based or functional assay.

Assay [3] has as its target T2, KDM2A N186A (UniProt Q9Y2K7 1-1162, N186A).
T2 sequence (looked up): T1 sequence (looked up) with N186A, A323K, A324F
The assay is described as follows: cell-based or functional assay.

Residue numbers refer to the chain shown, from its start. Ends that are not written are not given here. Me2 = dimethyl (dimethyl-lysine)

For the molecule H3K36me2 peptide Y41A, the demethylation of the mutant H3K36me2 peptide by wild-type KDM2A in vitro in assay [1] is < 2 fold. For APATGGVK(Me2)KPHRY [H3(A29–Y41)K36me2 peptide], the “H3K36me2 demethylation activity in vitro, fluorescence-based assay” value in assay [2] and in assay [3] was ~3 fold reduction throughout.

These data come from PMC4197961 (Genes & Development, 2014).
